From US20170052184A1

How the values were obtained:
[1] = molecular target: HCV Core Peptide # 55 (aa 109-123) (hepatitis C virus); experiment: EIA on coated peptide 55 (well G7); IgG 2 ug/mL
[2] = molecular target: HCV Core Peptide # 49 (aa 97-111) (hepatitis C virus); experiment: EIA on coated peptide 49 (well A7); IgG 2 ug/mL
[3] = molecular target: HCV Core Peptide # 52 (aa 103-117) (hepatitis C virus); experiment: peptide EIA summary (Table 11), peptide 52, aa 103-117
[4] = molecular target: HCV Core Peptide # 50 (aa 99-113) (hepatitis C virus); experiment: EIA on coated peptide 50 (well B7); IgG 2 ug/mL
[5] = molecular target: HCV Core Peptide # 51 (aa 101-115) (hepatitis C virus); experiment: EIA on coated peptide 51 (well C7); IgG 2 ug/mL
[6] = molecular target: HCV Core Peptide # 49 (aa 97-111) (hepatitis C virus); experiment: peptide EIA summary (Table 11), peptide 49, aa 97-111
[7] = molecular target: HCV Core Peptide # 55 (aa 109-123) (hepatitis C virus); experiment: peptide EIA summary (Table 11), peptide 55, aa 109-123
[8] = molecular target: HCV Core Peptide # 50 (aa 99-113) (hepatitis C virus); experiment: peptide EIA summary (Table 11), peptide 50, aa 99-113
[9] = molecular target: HCV Core Peptide # 48 (aa 95-109) (hepatitis C virus); experiment: peptide EIA summary (Table 11), peptide 48, aa 95-109
[10] = molecular target: HCV Core Peptide # 48 (aa 95-109) (hepatitis C virus); experiment: EIA on coated peptide 48 (well H6); IgG 2 ug/mL
[11] = molecular target: HCV Core Peptide # 51 (aa 101-115) (hepatitis C virus); experiment: peptide EIA summary (Table 11), peptide 51, aa 101-115
[12] = molecular target: HCV Core Peptide # 54 (aa 107-121) (hepatitis C virus); experiment: peptide EIA summary (Table 11), peptide 54, aa 107-121
[13] = molecular target: HCV Core Peptide # 52 (aa 103-117) (hepatitis C virus); experiment: EIA on coated peptide 52 (well D7); IgG 2 ug/mL
[14] = molecular target: HCV Core Peptide # 54 (aa 107-121) (hepatitis C virus); experiment: EIA on coated peptide 54 (well F7); IgG 2 ug/mL
[15] = molecular target: HCV Core Peptide # 53 (aa 105-119) (hepatitis C virus); experiment: peptide EIA summary (Table 11), peptide 53, aa 105-119
[16] = molecular target: HCV Core Peptide # 53 (aa 105-119) (hepatitis C virus); experiment: EIA on coated peptide 53 (well E7); IgG 2 ug/mL
[17] = molecular target: HCV Core1-169 recombinant antigen (hepatitis C virus (HCV-1)) (UniProt P26664); experiment: sandwich EIA, 25 ng/ml core1-169; capture NC capture mAb
Chain of HCV Core1-169 recombinant antigen (hepatitis C virus (HCV-1)) (P26664 1-169, tags left off): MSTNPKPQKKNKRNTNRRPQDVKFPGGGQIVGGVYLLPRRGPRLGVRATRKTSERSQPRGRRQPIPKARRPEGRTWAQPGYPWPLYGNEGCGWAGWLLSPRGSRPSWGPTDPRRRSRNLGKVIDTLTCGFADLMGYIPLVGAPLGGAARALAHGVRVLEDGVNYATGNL

[18] = molecular target: HCV Core1-169 recombinant antigen (hepatitis C virus (HCV-1)) (UniProt P26664); experiment: sandwich EIA, 25 ng/ml core1-169; capture mAb 208B-612-226
[19] = molecular target: HCV Core1-169 recombinant antigen (hepatitis C virus (HCV-1)) (UniProt P26664); experiment: sandwich EIA, 25 ng/ml core1-169; capture mAb 208B-395-334
[20] = molecular target: HCV Core1-169 recombinant antigen (hepatitis C virus (HCV-1)) (UniProt P26664); experiment: sandwich EIA, 25 ng/ml core1-169; capture mAb 208B-1096
[21] = molecular target: HCV Core1-169 recombinant antigen (hepatitis C virus (HCV-1)) (UniProt P26664); experiment: sandwich EIA, 25 ng/ml core1-169; capture mAb 208B-741
[22] = molecular target: HCV Core1-169 recombinant antigen (hepatitis C virus (HCV-1)) (UniProt P26664); experiment: sandwich EIA, 25 ng/ml core1-169; capture mAb 208A-110
[23] = molecular target: HCV Core1-169 recombinant antigen (hepatitis C virus (HCV-1)) (UniProt P26664); experiment: sandwich EIA, 25 ng/ml core1-169; capture mAb 208A-293
[24] = molecular target: HCV Core1-169 recombinant antigen (hepatitis C virus (HCV-1)) (UniProt P26664); experiment: sandwich EIA, 25 ng/ml core1-169; capture mAb C11-7
[25] = molecular target: HCV Core1-169 recombinant antigen (hepatitis C virus (HCV-1)) (UniProt P26664); experiment: sandwich EIA, 25 ng/ml core1-169; capture mAb C11-9
[26] = molecular target: HCV Core1-169 recombinant antigen (hepatitis C virus (HCV-1)) (UniProt P26664); experiment: sandwich EIA, 25 ng/ml core1-169; capture mAb 208A-557
[27] = molecular target: HCV Core1-169 recombinant antigen (hepatitis C virus (HCV-1)) (UniProt P26664); experiment: sandwich EIA, 25 ng/ml core1-169; capture mAb 208A-692
[28] = molecular target: HCV Core1-169 recombinant antigen (hepatitis C virus (HCV-1)) (UniProt P26664); experiment: sandwich EIA, 25 ng/ml core1-169; capture mAb 208A-207-271

| OD492 nm [17] | OD492 nm [18] | OD492 nm [19] | OD492 nm [20] | OD492 nm [21] | OD492 nm [22] | OD492 nm [23] | OD492 nm [24] | OD492 nm [25] | OD492 nm [26] | OD492 nm [27] | OD492 nm [28] | Substance | other results |
| --- | --- | --- | --- | --- | --- | --- | --- | --- | --- | --- | --- | --- | --- |
|  |  |  |  |  |  |  |  |  |  |  |  | C11-3 (ABT-4) monoclonal antibody | OD (A492 nm) [1]: 0.06 OD; OD (A492 nm) [2]: 0.97 OD; OD (A492 nm) [3]: 1.01 OD (A492 nm); OD (A492 nm) [4]: 0.97 OD; OD (A492 nm) [5]: 1 OD; OD (A492 nm) [6]: 1.03 OD (A492 nm); OD (A492 nm) [7]: 0.08 OD (A492 nm); OD (A492 nm) [8]: 1.03 OD (A492 nm); OD (A492 nm) [9]: 0.95 OD (A492 nm); OD (A492 nm) [10]: 0.81 OD; OD (A492 nm) [11]: 1.01 OD (A492 nm); OD (A492 nm) [12]: 0.08 OD (A492 nm); OD (A492 nm) [13]: 0.96 OD; OD (A492 nm) [14]: 0.08 OD; OD (A492 nm) [15]: 0.36 OD (A492 nm); OD (A492 nm) [16]: 0.36 OD |
| 0.22 OD492 | 0.53 OD492 | 0.46 OD492 | 0.45 OD492 | 1.76 OD492 | 1.78 OD492 | 1.55 OD492 | 0.23 OD492 | 1.04 OD492 | 0.64 OD492 | 0.18 OD492 | 0.22 OD492 | anti-HCV Core C11-7 monoclonal antibody |  |
| 0.62 OD492 | 0.63 OD492 | 0.95 OD492 | 0.82 OD492 | 2.32 OD492 | 2.59 OD492 | 1.84 OD492 | 1.91 OD492 | 2.75 OD492 | 1.18 OD492 | 0.58 OD492 | 0.44 OD492 | anti-HCV Core C11-9 monoclonal antibody |  |
| 0.18 OD492 | 0.22 OD492 | 0.22 OD492 | 0.21 OD492 | 0.18 OD492 | 0.16 OD492 | 0.23 OD492 | 0.17 OD492 | 0.14 OD492 | 0.18 OD492 | 0.15 OD492 | 0.17 OD492 | negative control (NC) monoclonal antibody |  |
